Test results published in US20230263864A1, “THERAPEUTIC MICROBES” (Danmarks Tekniske Universitet, priority 2020, published 2023).

B1: Hiracin JM79: bacteriocin (SEQ ID NO. 27) co-expressed by L-DOPA producing E. coli Nissle (protein)
chain: MKKTAIAIAVALAGFATVAQAATYYGNGLYCNKEKCWVDWNQAKGEIGKIIVNGWVNHGPWAPRR
modifications: Hiracin JM79
B2: ubericin A: bacteriocin (SEQ ID NO. 29) co-expressed by L-DOPA producing E. coli Nissle (protein)
chain: MKKTAIAIAVALAGFATVAQAKTVNYGNGLYCNQKKCWVNWSETATTIVNNSIMNGLTGGNAGWHSGGRA
modifications: Ubericin A
B3: Enterocin A: bacteriocin (SEQ ID NO. 31) co-expressed by L-DOPA producing E. coli Nissle, pMUT-DOPA_5-EntA (protein)
chain: MKKTAIAIAVALAGFATVAQATTHSGKYYGNGVYCTKNKCTVDWAKATTCIAGMSIGGFLGGAIPGKC
modifications: Enterocin A

Assays:
[1] = Oral gavage of engineered E. coli Nissle in mice, metabolites and body weight; assay type: in vivo, mice (NMRI); details: carbidopa 10 mg/kg IP every 24 h
Description: Female mice (NMRI, supplied by Taconic Biosciences, 6 weeks of age) were group-housed on a 12-h light:dark cycle at constant temperature with ad libitum access to food and water in a Specific Pathogen Free (SPF) facility. Upon delivery, mice were given 5 days to adjust to new location. Cohort size was 8 animals, and 4 different cohorts were tested, see below. All animals received Streptomycin (5 g/L) in the drinking water to ensure colonization, 3 days before being gavaged and throughout the experiment. A single oral gavage of 10^8 cells was administered of either L-DOPA-producing (called ‘EcN_DOPA’) or a control E. coli Nissle (‘EcN_CTRL’) strain without expression of the tyrosine hydroxylase gene. Samples were taken for the following 7 days, after which animals were euthanized and final blood samples and gut content samples were collected. […] Fresh fecal samples were collected daily for 7 days to quantify colonization and metabolite levels. […]
In vivo sample analysis: Plasma, tissue samples, gut content and fecal samples were analyzed for DOPA-derived and related serotonin metabolites using LC-MS. […] Gut and brain tissue was also frozen for real-time quantitative PCR (RT-qPCR) and metabolite analysis. Quantification of metabolites from in vivo samples was performed as described above (‘LC-MS analysis’).

E. faecalis = assay: Bacteriocin assay (halos on BHI agar); assay type: cell-based; details: overnight 37 C, FIG. 6C
Description: Three colonies of each E. coli Nissle strain were inoculated in 5 ml of BHI broth and grown overnight at 37° C. in a shaking incubator. The following day, 1 ml of the culture was washed with PBS buffer once and 10 μl were used to spot the strains on top of a BHI agar plate. After drying, top BHI agar was mixed with 500 μl of previously grown E. faecalis, and was placed on top of the BHI agar containing the dried spots of the E. coli strains. Plates were dried for 10 minutes and then incubated at 37° C. overnight.

Molecule | Plasma serotonin levels ([1]; EcN_DOPA p=0.08) | Serotonin (5-HT) concentrations in urine ([1]; single oral gavage 10^8 cells, EcN_DOPA vs control strain p=0.06) | inhibition of E. faecalis around EcN spots (E. faecalis)
C[C@@](Cc1ccc(O)c(O)c1)(NN)C(=O)O [carbidopa] | reduced | decreased below detection level | –
B1 | – | – | halos of inhibition
B2 | – | – | halos of inhibition
B3 | – | – | halos of inhibition
